According to patent US20140213513A1 (Sanofi, priority 2012, published 2014):
*1 amine or outer side, *2 acyl side, *3 side chain or, on linkers, in order; H or OH if unused. Where no end group is shown, it is not given here. Side-chain parts run from the residue outwards. [ ]: non-standard residue; d: D form. The star is where a group is joined. γGlu = O=C(O)[C@H](CCC(=O)[*:2])N[*:1]; Stearoyl = CCCCCCCCCCCCCCCCCC(=O)*; Palmitoyl = CCCCCCCCCCCCCCCC(=O)*; Aib = CC(C)(N)C(=O)O

Experiments:
Test in all cases: cell-based or functional assay
[1] = target: human glucagon receptor (human, UniProt P47871 26-477)
[2] = target: T1, human GIP receptor (human, UniProt P48546 22-466)
T1 sequence (looked up): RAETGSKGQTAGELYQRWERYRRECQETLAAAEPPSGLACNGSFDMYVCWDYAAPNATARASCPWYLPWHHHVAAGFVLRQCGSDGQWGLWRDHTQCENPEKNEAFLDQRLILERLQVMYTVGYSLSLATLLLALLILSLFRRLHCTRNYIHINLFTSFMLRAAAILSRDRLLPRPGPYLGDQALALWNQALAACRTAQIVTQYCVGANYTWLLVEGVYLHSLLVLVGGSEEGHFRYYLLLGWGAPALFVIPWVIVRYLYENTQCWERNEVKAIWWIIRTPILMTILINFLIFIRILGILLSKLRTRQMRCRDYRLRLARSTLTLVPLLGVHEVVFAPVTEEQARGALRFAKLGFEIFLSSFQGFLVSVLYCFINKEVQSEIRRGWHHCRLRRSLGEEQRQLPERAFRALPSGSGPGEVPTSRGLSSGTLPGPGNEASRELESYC

[3] = target: human GLP-1 receptor (human, UniProt P43220 24-463)

Chain of human glucagon receptor (P47871 26-477): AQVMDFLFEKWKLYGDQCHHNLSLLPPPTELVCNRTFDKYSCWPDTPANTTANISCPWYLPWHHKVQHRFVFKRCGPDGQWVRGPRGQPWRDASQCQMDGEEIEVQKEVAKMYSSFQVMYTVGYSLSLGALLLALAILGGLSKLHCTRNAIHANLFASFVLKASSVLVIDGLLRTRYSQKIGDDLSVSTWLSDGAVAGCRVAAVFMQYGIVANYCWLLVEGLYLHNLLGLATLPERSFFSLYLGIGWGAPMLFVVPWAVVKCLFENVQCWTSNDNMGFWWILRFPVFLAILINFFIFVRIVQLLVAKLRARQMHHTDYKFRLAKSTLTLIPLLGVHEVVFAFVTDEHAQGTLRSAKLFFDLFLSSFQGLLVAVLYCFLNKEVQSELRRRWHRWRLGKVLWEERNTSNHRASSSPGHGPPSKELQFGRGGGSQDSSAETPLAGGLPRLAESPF

Binder | EC50 hGLUC R [1] | EC50 hGIP R [2] | EC50 hGLP-1 R [3]
Y[Aib]QGTFTSDLSKQK([γGlu-Stearoyl])DEEAARLFIEWLKAGGPSSGAPPPS-NH2 (N-terminus assumed; SMILES CCCCCCCCCCCCCCCCCC(=O)N[C@@H](CCC(=O)NCCCC[C@H](NC(=O)[C@H](CCC(N)=O)NC(=O)[C@H](CCCCN)NC(=O)[C@H](CO)NC(=O)[C@H](CC(C)C)NC(=O)[C@H](CC(=O)O)NC(=O)[C@H](CO)NC(=O)[C@@H](NC(=O)[C@H](Cc1ccccc1)NC(=O)[C@@H](NC(=O)CNC(=O)[C@H](CCC(N)=O)NC(=O)C(C)(C)NC(=O)[C@@H](N)Cc1ccc(O)cc1)[C@@H](C)O)[C@@H](C)O)C(=O)N[C@@H](CC(=O)O)C(=O)N[C@@H](CCC(=O)O)C(=O)N[C@@H](CCC(=O)O)C(=O)N[C@@H](C)C(=O)N[C@@H](C)C(=O)N[C@@H](CCCNC(=N)N)C(=O)N[C@@H](CC(C)C)C(=O)N[C@@H](Cc1ccccc1)C(=O)N[C@H](C(=O)N[C@@H](CCC(=O)O)C(=O)N[C@@H](Cc1c[nH]c2ccccc12)C(=O)N[C@@H](CC(C)C)C(=O)N[C@@H](CCCCN)C(=O)N[C@@H](C)C(=O)NCC(=O)NCC(=O)N1CCC[C@H]1C(=O)N[C@@H](CO)C(=O)N[C@@H](CO)C(=O)NCC(=O)N[C@@H](C)C(=O)N1CCC[C@H]1C(=O)N1CCC[C@H]1C(=O)N1CCC[C@H]1C(=O)N[C@@H](CO)C(N)=O)[C@@H](C)CC)C(=O)O) [exendin-4 peptide analogue SEQ ID NO: 60] | 0.0091 nM | 0.0168 nM | 0.0053 nM
Y[Aib]QGTFTSDLSKQK([γGlu-Palmitoyl])DSKAAQDFIEWLKAGGPSSGAPPPS-NH2 (N-terminus assumed; SMILES CCCCCCCCCCCCCCCC(=O)N[C@@H](CCC(=O)NCCCC[C@H](NC(=O)[C@H](CCC(N)=O)NC(=O)[C@H](CCCCN)NC(=O)[C@H](CO)NC(=O)[C@H](CC(C)C)NC(=O)[C@H](CC(=O)O)NC(=O)[C@H](CO)NC(=O)[C@@H](NC(=O)[C@H](Cc1ccccc1)NC(=O)[C@@H](NC(=O)CNC(=O)[C@H](CCC(N)=O)NC(=O)C(C)(C)NC(=O)[C@@H](N)Cc1ccc(O)cc1)[C@@H](C)O)[C@@H](C)O)C(=O)N[C@@H](CC(=O)O)C(=O)N[C@@H](CO)C(=O)N[C@@H](CCCCN)C(=O)N[C@@H](C)C(=O)N[C@@H](C)C(=O)N[C@@H](CCC(N)=O)C(=O)N[C@@H](CC(=O)O)C(=O)N[C@@H](Cc1ccccc1)C(=O)N[C@H](C(=O)N[C@@H](CCC(=O)O)C(=O)N[C@@H](Cc1c[nH]c2ccccc12)C(=O)N[C@@H](CC(C)C)C(=O)N[C@@H](CCCCN)C(=O)N[C@@H](C)C(=O)NCC(=O)NCC(=O)N1CCC[C@H]1C(=O)N[C@@H](CO)C(=O)N[C@@H](CO)C(=O)NCC(=O)N[C@@H](C)C(=O)N1CCC[C@H]1C(=O)N1CCC[C@H]1C(=O)N1CCC[C@H]1C(=O)N[C@@H](CO)C(N)=O)[C@@H](C)CC)C(=O)O) [exendin-4 peptide analogue SEQ ID NO: 61] | 0.0061 nM | 0.0214 nM | 0.0024 nM
Y[Aib]QGTFTSDLSIQK([γGlu-Palmitoyl])EKR[Aib]A[Aib]EFIEWLKNTGPSSGAPPPS-NH2 (N-terminus assumed; SMILES CCCCCCCCCCCCCCCC(=O)N[C@@H](CCC(=O)NCCCC[C@H](NC(=O)[C@H](CCC(N)=O)NC(=O)[C@@H](NC(=O)[C@H](CO)NC(=O)[C@H](CC(C)C)NC(=O)[C@H](CC(=O)O)NC(=O)[C@H](CO)NC(=O)[C@@H](NC(=O)[C@H](Cc1ccccc1)NC(=O)[C@@H](NC(=O)CNC(=O)[C@H](CCC(N)=O)NC(=O)C(C)(C)NC(=O)[C@@H](N)Cc1ccc(O)cc1)[C@@H](C)O)[C@@H](C)O)[C@@H](C)CC)C(=O)N[C@@H](CCC(=O)O)C(=O)N[C@@H](CCCCN)C(=O)N[C@@H](CCCNC(=N)N)C(=O)NC(C)(C)C(=O)N[C@@H](C)C(=O)NC(C)(C)C(=O)N[C@@H](CCC(=O)O)C(=O)N[C@@H](Cc1ccccc1)C(=O)N[C@H](C(=O)N[C@@H](CCC(=O)O)C(=O)N[C@@H](Cc1c[nH]c2ccccc12)C(=O)N[C@@H](CC(C)C)C(=O)N[C@@H](CCCCN)C(=O)N[C@@H](CC(N)=O)C(=O)N[C@H](C(=O)NCC(=O)N1CCC[C@H]1C(=O)N[C@@H](CO)C(=O)N[C@@H](CO)C(=O)NCC(=O)N[C@@H](C)C(=O)N1CCC[C@H]1C(=O)N1CCC[C@H]1C(=O)N1CCC[C@H]1C(=O)N[C@@H](CO)C(N)=O)[C@@H](C)O)[C@@H](C)CC)C(=O)O) [exendin-4 peptide analogue SEQ ID NO: 11] | 0.0669 nM | 0.0144 nM | 0.0038 nM
Y[Aib]EGTFTSDLSIQK([γGlu-Stearoyl])EEEAVKLFIEWLKAGGPSSGAPPPS-NH2 (N-terminus assumed; SMILES CCCCCCCCCCCCCCCCCC(=O)N[C@@H](CCC(=O)NCCCC[C@H](NC(=O)[C@H](CCC(N)=O)NC(=O)[C@@H](NC(=O)[C@H](CO)NC(=O)[C@H](CC(C)C)NC(=O)[C@H](CC(=O)O)NC(=O)[C@H](CO)NC(=O)[C@@H](NC(=O)[C@H](Cc1ccccc1)NC(=O)[C@@H](NC(=O)CNC(=O)[C@H](CCC(=O)O)NC(=O)C(C)(C)NC(=O)[C@@H](N)Cc1ccc(O)cc1)[C@@H](C)O)[C@@H](C)O)[C@@H](C)CC)C(=O)N[C@@H](CCC(=O)O)C(=O)N[C@@H](CCC(=O)O)C(=O)N[C@@H](CCC(=O)O)C(=O)N[C@@H](C)C(=O)N[C@H](C(=O)N[C@@H](CCCCN)C(=O)N[C@@H](CC(C)C)C(=O)N[C@@H](Cc1ccccc1)C(=O)N[C@H](C(=O)N[C@@H](CCC(=O)O)C(=O)N[C@@H](Cc1c[nH]c2ccccc12)C(=O)N[C@@H](CC(C)C)C(=O)N[C@@H](CCCCN)C(=O)N[C@@H](C)C(=O)NCC(=O)NCC(=O)N1CCC[C@H]1C(=O)N[C@@H](CO)C(=O)N[C@@H](CO)C(=O)NCC(=O)N[C@@H](C)C(=O)N1CCC[C@H]1C(=O)N1CCC[C@H]1C(=O)N1CCC[C@H]1C(=O)N[C@@H](CO)C(N)=O)[C@@H](C)CC)C(C)C)C(=O)O) [exendin-4 peptide analogue SEQ ID NO: 62] | > 1000 nM | 0.0067 nM | 0.0076 nM
Y[Aib]EGTFTSDLSKQK([γGlu-Palmitoyl])DKRAAQDFIEWLKAGGPSSGAPPPS-NH2 (N-terminus assumed; SMILES CCCCCCCCCCCCCCCC(=O)N[C@@H](CCC(=O)NCCCC[C@H](NC(=O)[C@H](CCC(N)=O)NC(=O)[C@H](CCCCN)NC(=O)[C@H](CO)NC(=O)[C@H](CC(C)C)NC(=O)[C@H](CC(=O)O)NC(=O)[C@H](CO)NC(=O)[C@@H](NC(=O)[C@H](Cc1ccccc1)NC(=O)[C@@H](NC(=O)CNC(=O)[C@H](CCC(=O)O)NC(=O)C(C)(C)NC(=O)[C@@H](N)Cc1ccc(O)cc1)[C@@H](C)O)[C@@H](C)O)C(=O)N[C@@H](CC(=O)O)C(=O)N[C@@H](CCCCN)C(=O)N[C@@H](CCCNC(=N)N)C(=O)N[C@@H](C)C(=O)N[C@@H](C)C(=O)N[C@@H](CCC(N)=O)C(=O)N[C@@H](CC(=O)O)C(=O)N[C@@H](Cc1ccccc1)C(=O)N[C@H](C(=O)N[C@@H](CCC(=O)O)C(=O)N[C@@H](Cc1c[nH]c2ccccc12)C(=O)N[C@@H](CC(C)C)C(=O)N[C@@H](CCCCN)C(=O)N[C@@H](C)C(=O)NCC(=O)NCC(=O)N1CCC[C@H]1C(=O)N[C@@H](CO)C(=O)N[C@@H](CO)C(=O)NCC(=O)N[C@@H](C)C(=O)N1CCC[C@H]1C(=O)N1CCC[C@H]1C(=O)N1CCC[C@H]1C(=O)N[C@@H](CO)C(N)=O)[C@@H](C)CC)C(=O)O) [exendin-4 peptide analogue SEQ ID NO: 63] | 1.67 nM | 0.0119 nM | 0.006 nM
Y[Aib]EGTFTSDLSIQK([γGlu-Stearoyl])EERAVRLFIEWLKAGGPSSGAPPPS-NH2 (N-terminus assumed; SMILES CCCCCCCCCCCCCCCCCC(=O)N[C@@H](CCC(=O)NCCCC[C@H](NC(=O)[C@H](CCC(N)=O)NC(=O)[C@@H](NC(=O)[C@H](CO)NC(=O)[C@H](CC(C)C)NC(=O)[C@H](CC(=O)O)NC(=O)[C@H](CO)NC(=O)[C@@H](NC(=O)[C@H](Cc1ccccc1)NC(=O)[C@@H](NC(=O)CNC(=O)[C@H](CCC(=O)O)NC(=O)C(C)(C)NC(=O)[C@@H](N)Cc1ccc(O)cc1)[C@@H](C)O)[C@@H](C)O)[C@@H](C)CC)C(=O)N[C@@H](CCC(=O)O)C(=O)N[C@@H](CCC(=O)O)C(=O)N[C@@H](CCCNC(=N)N)C(=O)N[C@@H](C)C(=O)N[C@H](C(=O)N[C@@H](CCCNC(=N)N)C(=O)N[C@@H](CC(C)C)C(=O)N[C@@H](Cc1ccccc1)C(=O)N[C@H](C(=O)N[C@@H](CCC(=O)O)C(=O)N[C@@H](Cc1c[nH]c2ccccc12)C(=O)N[C@@H](CC(C)C)C(=O)N[C@@H](CCCCN)C(=O)N[C@@H](C)C(=O)NCC(=O)NCC(=O)N1CCC[C@H]1C(=O)N[C@@H](CO)C(=O)N[C@@H](CO)C(=O)NCC(=O)N[C@@H](C)C(=O)N1CCC[C@H]1C(=O)N1CCC[C@H]1C(=O)N1CCC[C@H]1C(=O)N[C@@H](CO)C(N)=O)[C@@H](C)CC)C(C)C)C(=O)O) [exendin-4 peptide analogue SEQ ID NO: 64] | 75.1 nM | 0.0096 nM | 0.0102 nM
